We go through three molecules from patent publication US20240084003A1 (SIMCERE ZAIMING PHARMACEUTICAL, published 2024).

First the molecules themselves.
T1: monkey CD22 protein (ACROBiosystems, catalog number SI2-R52Ha) (monkey, UniProt F6W485 20-688)
T1 construct: commercial protein; also called monkey CD22-ECD; monkey CD22-ECD-His
T1 sequence: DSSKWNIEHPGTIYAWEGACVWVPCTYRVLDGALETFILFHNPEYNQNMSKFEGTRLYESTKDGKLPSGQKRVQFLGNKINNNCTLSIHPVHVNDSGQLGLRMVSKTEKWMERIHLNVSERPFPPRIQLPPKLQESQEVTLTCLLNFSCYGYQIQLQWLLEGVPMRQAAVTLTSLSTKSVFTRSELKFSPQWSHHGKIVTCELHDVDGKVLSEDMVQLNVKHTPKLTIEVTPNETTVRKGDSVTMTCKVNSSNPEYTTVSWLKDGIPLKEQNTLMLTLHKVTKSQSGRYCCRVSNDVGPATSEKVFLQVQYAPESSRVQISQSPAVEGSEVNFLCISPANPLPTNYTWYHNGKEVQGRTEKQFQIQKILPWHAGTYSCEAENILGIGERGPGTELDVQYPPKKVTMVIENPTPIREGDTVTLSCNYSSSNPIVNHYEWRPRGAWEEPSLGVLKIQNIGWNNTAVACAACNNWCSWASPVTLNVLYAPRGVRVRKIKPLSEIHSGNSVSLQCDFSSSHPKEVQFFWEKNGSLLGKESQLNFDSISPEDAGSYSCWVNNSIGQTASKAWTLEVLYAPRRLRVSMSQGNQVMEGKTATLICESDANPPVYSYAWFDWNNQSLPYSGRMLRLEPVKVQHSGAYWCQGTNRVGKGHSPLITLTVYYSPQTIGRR

B1: F2.99.1 (antibody, human IgG1, lambda, V domains shown)
VH: QVTLKESGPGILQPSQTLSLTCSFSGFSLSTFPMGVGWIRQPSGKGLEWLAHIWWDDDEYYNPVLKSRLTISKDTSKKQVYLRIANVDTVDTATYYCTRANWDRWYFDVWGTGTTVTVSS
VL: QLVLTQSSSASFSLGASAKLTCTLSRQHSAYTIEWYQQQPLKPPKYVMEVKKDGSHSTGDGIPDRFSGSSSGADRYLSISNIQPEDEAIYICGVGDTIKEHFVFGGGTKVTVLG
notes: human-murine chimeric IgG1 lambda; VL name legible
B2: F2.42.9 (antibody, human IgG1, lambda, V domains shown)
VH: QVTLKESGPGILQPSQTLSLTCSFSGFSLSTFDRGVGWIRQPSGKGLEWLAHIWWNDKKFYNPVLKSRLTISKDTSKNQVFLTIANVDSADTATYSCARIVWDKYYFDYWGQGIPLTVSS
VL: B1 VL with R26S, Y46F, E49D, V50L, D64A, S78T, H101Q, F102Y
notes: as for B1
B3: F1.280.1 (antibody, human IgG1, kappa, V domains shown)
VH: QIQLVQSGPELKKPGETVKISCKASGYTFTTYGMSWVKQTPGKGLTWMGWINTDSGVPTYADDFKRRFAFSLEASATTAYLQINNLKNEDTATYFCARGGPDYWGQGTTLTVSS
VL: DILLTQSPATLSVTPGETVSLSCRASQSIYKNLHWYHQKSHRSPRLLIKYASDSISGIPSRFTGSGSGTNFTLSINSVKPEDEGIYYCLQGYIVPLTFGAGTKLELKR
notes: human-murine chimeric IgG1 kappa

Where a chain is given by its changes, count along the chain named.

The target of one test is T1, monkey CD22 protein (ACROBiosystems, …). The experiment in a line: ELISA, coated monkey CD22 protein, antibody 0.00001 nM. As for the experimental part:
(§1) In order to detect the binding activity of CD22 human-murine chimeric antibodies to CD22 protein, the purified human CD22-ECD-His protein obtained in Example 2 was diluted with PBS to a final concentration of 2 μg/mL, and then added to 96-well ELISA plate at 100 μl/well. The plate was sealed with plastic film and incubated overnight at 4° C., the plate was washed 2 times with PBS the next day, and then a blocking solution [PBS+2% (w/w) BSA] was added for blocking at room temperature for 2 hours. […] After incubation at 37° C. for 2 hours, the plate was washed 3 times with PBS. HRP (horseradish peroxidase)-labeled secondary antibody (purchased from Sigma, catalog number: A0170) was added, and incubated at 37° C. for 2 hours, and the plate was washed 5 times with PBS. TMB substrate was added at 50 μl/well, and incubated at room temperature for 30 minutes, then a stop solution (1.0 N HCl) was added at 50 μl/well.
(§2) In order to detect the species cross-binding activity of the chimeric antibodies, an ELISA plate was coated with commercial murine CD22 protein (ACROBiosystems, catalog number: SI2-M52Ha) and monkey CD22 protein (ACROBiosystems, catalog number: SI2-R52Ha), respectively, and the ELISA detection was performed according to the method in Example 5.1.
Background: In an ELISA, binding on a coated surface is turned into a signal by an enzyme label.
B1 returned an OD450 of 0.05 OD450.

As for B2, the OD450 was 0.07 OD450.

The molecule B3 gave an OD450 of 0.06 OD450.

For the next test the target is unchanged. Description: ELISA, coated monkey CD22 protein, antibody 0.01 nM. As for the experimental part:
as §1, §2
Turning to B1, the OD450 was 0.07 OD450.

Regarding B2, the OD450 stood at 0.25 OD450.

B3 registered an OD450 of 0.05 OD450.

The next test has the same target. Description: ELISA, coated monkey CD22 protein, antibody 0.1 nM. As for the experimental part:
as §1, §2
With B1, the OD450 is 0.27 OD450.

B2 came in with an OD450 of 0.95 OD450.

As to B3, the OD450 turned out to be 0.06 OD450.

For another test the target is unchanged. Description: ELISA, coated monkey CD22 protein, antibody 0.001 nM. The procedure:
as §1, §2
In turn, B1 registered an OD450 of 0.05 OD450.

The molecule B2 displayed an OD450 of 0.09 OD450.

With B3, the OD450 was determined as 0.06 OD450.

Another test addresses T2, CD22 on cynomolgus monkey peripheral blood B cells (cynomolgus monkey (Macaca fascicularis)).
T2 construct: whole, on cells; also called cynomolgus monkey B cells
The experiment in a line: FACS, cynomolgus PBMC, CD20+ B cells, antibody 10 nM. The source says:
(§3) The monkey peripheral blood mononuclear cells were extracted from fresh cynomolgus monkey peripheral blood (purchased from Shanghai Medicilon Inc.) according to the instructions of Ficoll-Paque Plus (purchased from GE Healthcare, catalog number: 171440-02). After the cell suspension was centrifuged, the cells were resuspended in PBS containing 1% BSA, and then the cells were counted. At the same time, the murine antibody Brilliant Violet 605 anti-human CD20 (catalog number: 302334, purchased from Biolegend) with monkey CD20 cross-binding activity and the chimeric antibodies to be tested (1 nM, 10 nM and 100 nM) were added and incubated at room temperature for 1 hour. After washing the cells three times, APC-labeled secondary antibody anti-human IgG Fc (catalog number: 409306, purchased from Biolegend) was added. After incubation at room temperature in the dark for 30 minutes, the cells were washed 5 times, gently resuspended with PBS containing 1% BSA, and detected and analyzed by FACS (FACS Canto™, purchased from BD Company). Wherein CD20 was used as a marker of B cells, and the CD20-positive B cell population was gated, the proportion of chimeric antibody positive cells was analyzed, and the proportion of chimeric antibody positive cell population to B cell population was calculated after treatments with the chimeric antibodies at the concentrations of 100 nM, 10 nM and 1 nM, respectively. The scatter plot of double-stained cells by Brilliant Violet 605-labeled CD20 and APC secondary antibody indirectly labeled chimeric antibody is shown in FIG. 10A-FIG. 10B (under the condition of 1 nM of chimeric antibody concentration).
On the technique in general: Flow cytometry measures light scatter and fluorescence of single cells or particles in a stream.
Turning to B1, the “Proportion of chimeric antibody positive cells to B cells (%)” value (from here on “Proportion … (%)”) turned out to be 16%.

On to B2, for which the “Proportion … (%)” value stood at 20%.

On to B3, for which the “Proportion … (%)” value was found to be 18%.

In a further test the target is T2, CD22 on cynomolgus monkey peripheral …. The experiment in a line: FACS, cynomolgus PBMC, CD20+ B cells, antibody 100 nM.
Description: as §3
Regarding B1, the “Proportion … (%)” value turned out to be 22%.

As for B2, the “Proportion … (%)” value turned out to be 23%.

For the molecule B3, the “Proportion … (%)” value was 35%.

For the next test, the target named is T1, monkey CD22 protein (ACROBiosystems, …). The experiment in a line: ELISA, coated monkey CD22 protein, antibody 0.0001 nM. As for the experimental part:
as §1, §2
Molecule B1 displayed an OD450 of 0.05 OD450.

Consider B2, for which the OD450 is 0.07 OD450.

B3 displayed an OD450 of 0.06 OD450.

Another test shares this target. The experiment in a line: ELISA, coated monkey CD22 protein, antibody 10 nM. The procedure:
as §1, §2
B1 gave an OD450 of 1.03 OD450.

Turning to B2, the OD450 was determined as 1.65 OD450.

As to B3, the OD450 is 0.08 OD450.

For a further test the target is unchanged. The experiment in a line: ELISA, coated monkey CD22 protein, antibody 100 nM. The procedure:
as §1, §2
On to B1, for which the OD450 worked out at 1.37 OD450.

In turn, B2 yielded an OD450 of 2.42 OD450.

B3: the OD450 was determined as 0.2 OD450.

The target of another test is T2, CD22 on cynomolgus monkey peripheral …. The experiment in a line: FACS, cynomolgus PBMC, CD20+ B cells, antibody 1 nM.
Description: as §3
As for B1, the “Proportion … (%)” value came out at 19%.

Consider B2, for which the “Proportion … (%)” value was found to be 20%.

As for B3, the “Proportion … (%)” value is 19%.
